Data on 4 variants can be found in PMC11589140 (2024).

The chains are these.
B1: HA-tagged RUNX1T1, wild type [human] / FLAG-tagged GFI-1 [not stated] (parent complex)
chain 1: MISVKRNTWRALSLVIGDCRKKGNFEYCQDRTEKHSTMPDSPVDVKTQSRLTPPTMPPPPTTQGAPRTSSFTPTTLTNGTSHSPTALNGAPSPPNGFSNGPSSSSSSSLANQQLPPACGARQLSKLKRFLTTLQQFGNDISPEIGERVRTLVLGLVNSTLTIEEFHSKLQEATNFPLRPFVIPFLKANLPLLQRELLHCARLAKQNPAQYLAQHEQLLLDASTTSPVDSSELLLDVNENGKRRTPDRTKENGFDREPLHSEHPSKRPCTISPGQRYSPNNGLSYQPNGLPHPTPPPPQHYRLDDMAIAHHYRDSYRHPSHRDLRDRNRPMGLHGTRQEEMIDHRLTDREWAEEWKHLDHLLNCIMDMVEKTRRSLTVLRRCQEADREELNYWIRRYSDAEDLKKGGGSSSSHSRQQSPVNPDPVALDAHREFLHRPASGYVPEEIWKKAEEAVNEVKRQAMTELQKAVSEAERKAHDMITTERAKMERTVAEAKRQAAEDALAVINQQEDSSESCWNCGRKASETCSGCNTARYCGSFCQHKDWEKHHHICGQTLQAQQQGDTPAVSSSVTPNSGAGSPMDTPPAATPRSTTPGTPSTIETTPR
chain 2: not shown
B2: HA-tagged RUNX1T1, wild type [human] / FLAG-tagged Sin3A [not stated] (parent complex)
chain 1: B1 chain 1
chain 2: MKRRLDDQESPVYAAQQRRIPGSTEAFPHQHRVLAPAPPVYEAVSETMQSATGIQYSVTPSYQVSAMPQSSGSHGPAIAAVHSSHHHPTAVQPHGGQVVQSHAHPAPPVAPVQGQQQFQRLKVEDALSYLDQVKLQFGSQPQVYNDFLDIMKEFKSQSIDTPGVISRVSQLFKGHPDLIMGFNTFLPPGYKIEVQTNDMVNVTTPGQVHQIPTHGIQPQPQPPPQHPSQPSAQSAPAPAQPAPQPPPAKVSKPSQLQAHTPASQQTPPLPPYASPRSPPVQPHTPVTISLGTAPSLQNNQPVEFNHAINYVNKIKNRFQGQPDIYKAFLEILHTYQKEQRNAKEAGGNYTPALTEQEVYAQVARLFKNQEDLLSEFGQFLPDANSSVLLSKTTAEKVDSVRNDHGGTVKKPQLNNKPQRPSQNGCQIRRHPTGTTPPVKKKPKLLNLKDSSMADASKHGGGTESLFFDKVRKALRSAEAYENFLRCLVIFNQEVISRAELVQLVSPFLGKFPELFNWFKNFLGYKESVHLETYPKERATEGIAMEIDYASCKRLGSSYRALPKSYQQPKCTGRTPLCKEVLNDTWVSFPSWSEDSTFVSSKKTQYEEHIYRCEDERFELDVVLETNLATIRVLEAIQKKLSRLSAEEQAKFRLDNTLGGTSEVIHRKALQRIYADKAADIIDGLRKNPSIAVPIVLKRLKMKEEEWREAQRGFNKVWREQNEKYYLKSLDHQGINFKQNDTKVLRSKSLLNEIESIYDERQEQATEENAGVPVGPHLSLAYEDKQILEDAAALIIHHVKRQTGIQKEDKYKIKQIMHHFIPDLLFAQRGDLSDVEEEEEEEMDVDEATGAVKKHNGVGGSPPKSKLLFSNTAAQKLRGMDEVYNLFYVNNNWYIFMRLHQILCLRLLRICSQAERQIEEENREREWEREVLGIKRDKSDSPAIQLRLKEPMDVDVEDYYPAFLDMVRSLLDGNIDSSQYEDSLREMFTIHAYIAFTMDKLIQSIVRQLQHIVSDEICVQVTDLYLAENNNGATGGQLNTQNSRSLLESTYQRKAEQLMSDENCFKLMFIQSQGQVQLTIELLDTEEENSDDPVEAERWSDYVERYMNSDTTSPELREHLAQKPVFLPRNLRRIRKCQRGREQQEKEGKEGNSKKTMENVDSLDKLECRFKLNSYKMVYVIKSEDYMYRRTALLRAHQSHERVSKRLHQRFQAWVDKWTKEHVPREMAAETSKWLMGEGLEGLVPCTTTCDTETLHFVSINKYRVKYGTVFKAP

One test covers variants of B1. Nature of the test: co-immunoprecipitation (IP: HA) with densitometry quantification; HA-tagged RUNX1T1 and FLAG-tagged interactor co-expressed in HEK-293 cells; parent: 1; read off a plot.
For chain 1 E146K, the ratio to parent is ~1.6.

Regarding chain 1 E163K, the ratio to parent was ~1.6.

The variants in the next test derive from B2. Described as above.
On to chain 1 E163K, for which the ratio to parent is ~0.57.

Regarding chain 1 E146K, the ratio to parent was ~2.6.
